This assay addresses EIIA^Glc (UniProt P69783 2-169). Description: SPR + ELISA. For orientation: An ELISA detects its analyte on a solid surface through an enzyme-linked reagent.

EIIA^Glc, sequence (P69783 2-169): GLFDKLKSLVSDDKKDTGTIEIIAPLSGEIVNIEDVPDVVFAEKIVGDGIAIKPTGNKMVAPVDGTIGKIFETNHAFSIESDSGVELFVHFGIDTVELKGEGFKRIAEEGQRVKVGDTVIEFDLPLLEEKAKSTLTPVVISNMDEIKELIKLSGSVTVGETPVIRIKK

B1: EIIB^Glc (domain or fragment)
chain: EDATEDAKATGTSEMAPALVAAFGGKENITNLDACITRLRVSVADVSKVDQAGLKKLGAAGVVVAGSGVQAIFGTKSDNLKTEMDEYIRN
For the molecule B1, the Kd was greater than 10 µM.

In general, Kd refers to the concentration at which binding is half-saturated.

Values taken from paper doi:10.1101/2020.11.05.369280 (bioRxiv, 2020).
